Measurements as given in patent US20240124586A1 (WUXI BIOLOGICS IRELAND, published 2024).

T1: FcγRIIa (H167) (UniProt P12318 36-218, limits assumed)
T1 sequence (looked up): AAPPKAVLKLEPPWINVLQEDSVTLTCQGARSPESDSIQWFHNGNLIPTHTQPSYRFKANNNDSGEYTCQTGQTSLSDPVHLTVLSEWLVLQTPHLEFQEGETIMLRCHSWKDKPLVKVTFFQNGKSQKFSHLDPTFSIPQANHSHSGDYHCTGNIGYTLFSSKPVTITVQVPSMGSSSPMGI

T2: FcγRIIa (R167) (UniProt P12318 36-218, limits assumed)
T2 sequence (looked up): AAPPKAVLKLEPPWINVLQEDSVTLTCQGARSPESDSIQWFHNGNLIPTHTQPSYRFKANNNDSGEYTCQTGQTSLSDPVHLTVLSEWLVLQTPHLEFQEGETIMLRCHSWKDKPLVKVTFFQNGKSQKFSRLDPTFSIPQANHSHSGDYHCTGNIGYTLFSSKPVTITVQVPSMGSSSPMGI

T3: FcγRIIb (UniProt P31994 46-217, limits assumed)
T3 sequence (looked up): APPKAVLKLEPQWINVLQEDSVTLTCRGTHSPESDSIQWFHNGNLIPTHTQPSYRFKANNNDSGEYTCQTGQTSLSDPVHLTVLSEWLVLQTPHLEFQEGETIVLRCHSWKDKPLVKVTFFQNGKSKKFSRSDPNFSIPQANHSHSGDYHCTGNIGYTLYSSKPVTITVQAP


Experiments:
[1] = target: T1, FcγRIIa (H167); experiment: SPR (Biacore), receptor captured on anti-his chip, steady state model
Experimental: (§1) Antibody binding affinity to FcγRs was detected using Biacore T200 (or Biacore 8K). Each receptor was captured on an anti-his antibody immobilized CM5 sensor chip (GE). Antibodies at different concentrations were injected over the sensor chip at a flow rate of 30 uL/min for an association phase of 60 s, followed by 60 s dissociation. The chip was then regenerated by 10 mM glycine (pH 1.5) after each binding cycle.
(§2) The sensorgrams of blank surface and buffer channel were subtracted from the test sensorgrams. The experimental data was fitted by 1:1 model using Langmiur analysis (for FcγRI) or steady state model (for other receptors). A molecular weight of 150 KDa was used to calculate the molar concentration of antibodies.

[2] = target: FcγRIIIa (F176) (UniProt P08637 17-208); experiment: as above
Experimental: as §1, §2

[3] = target: T2, FcγRIIa (R167); experiment: as above
Experimental: as §1, §2

[4] = target: FcγRIIIa (V176) (UniProt P08637 17-208); experiment: as above
Experimental: as §1, §2

[5] = target: T3, FcγRIIb; experiment: as above
Experimental: as §1, §2

[6] = target: T4, human CD3 on CD3+ Jurkat cells (human, UniProt P07766 23-207; P09693 23-182; P04234 22-171); experiment: flow cytometry on Jurkat cells
T4 construct: whole, on cells; also called CD3 positive Jurkat cells

[7] = target: T5, ECD of human CTLA-4 (SPR analyte) (human, UniProt P16410 36-161); experiment: SPR (Biacore), antibody captured as ligand on an anti-human IgG Fc chip, CTLA4 ECD as analyte
T5 construct: extracellular domain
Experimental: (§3) SPR technology was used to measure the on-rate constant (ka) and off-rate constant (kd) of the antibodies to ECD of CTLA-4 or PD-1. The affinity constant (KD) was consequently determined.
(§4) Biacore T200, Series S Sensor Chip CM5, Amine Coupling Kit, and 10×HBS-EP were purchased from GE Healthcare. Goat anti-human IgG Fc antibody was purchased from Jackson ImmunoResearch Lab (catalog number 109-005-098). In immobilization step, the activation buffer was prepared by mixing 400 mM EDC and 100 mM NHS immediately prior to injection. The CM5 sensor chip was activated for 420 s with the activation buffer. 30 μg/mL of goat anti-human IgG Fcγ antibody in 10 mM NaAc (pH 4.5) was then injected to Fc1-Fc4 channels for 200 s at a flow rate of 5 μL/min. The chip was deactivated by 1 M ethanolamine-HCl (GE). Then the antibodies were captured on the chip. Briefly, 4 μg/mL antibodies in running buffer (HBS-EP+) was injected individually to Fc3 channel for 30 s at a flow rate of […]. […] Regeneration buffer (10 mM Glycine pH 1.5) was injected at 10 μL min for 30 s following every dissociation phase.

[8] = target: T6, human PD-1 on engineered CHO-S cells (W305-CHO-S.hPro1.C6) (human, UniProt Q15116 25-288); experiment: FACS binding to human PD-1 engineered cells
T6 construct: whole, on cells; also called human PD-1 engineered cells; PD-1+ cells
Experimental: Engineered human PD-1 expressing cells W305-CHO-S.hPro1.C6 were seeded at 1×10⁵ cells/well in U-bottom 96-well plates (COSTAR 3799). Antibodies with 3.16-fold titration in 1% BSA DPBS from 200 nM to 0.002 nM were added to the cells. The plates were incubated at 4° C. for 1 hour. After wash, […] 1:125 diluted PE-labeled goat anti-human antibody (Jackson 109-115-098) was added to each well and the plates were incubated at 4° C. for 1 hour. The binding of the antibodies onto the cells was tested by flow cytometry and the mean fluorescence intensity (MFI) was analyzed by FlowJo.

[9] = target: T6, human PD-1 on engineered CHO-S cells …; experiment: competitive FACS on human PD-1 CHO-S cells with 5 ug/ml PD-L1 ECD.mFc (competitor: PD-L1)
Experimental: (§5) In order to test whether the bispecific antibodies could block hPD-L1 binding to hPD-1 protein, a competitive FACS was conducted. […] Plates were incubated at 4° C. for 1 hour. After wash, the binding of W315-hPro1.ECD.mFc to cell expressive human PD-1 was detected by FITC-labeled goat anti-mouse antibody (abcam 98716 1:125). The competition binding of antibodies to the cells was tested by flow cytometry and the mean fluorescence intensity (MFI) was analyzed by FlowJo.

[10] = target: T6, human PD-1 on engineered CHO-S cells …; experiment: FACS competition: blocks human PD-L1 protein (W315-hPro1.ECD.mFc) binding to human PD-1 engineered cells
Experimental: as §5

[11] = target: T5, ECD of human CTLA-4 (SPR analyte); experiment: SPR (Biacore T200), antibody captured by anti-human Fc, CTLA-4 ECD as analyte
Experimental: as §3, §4

T6 sequence (Q15116 25-288, change not shown): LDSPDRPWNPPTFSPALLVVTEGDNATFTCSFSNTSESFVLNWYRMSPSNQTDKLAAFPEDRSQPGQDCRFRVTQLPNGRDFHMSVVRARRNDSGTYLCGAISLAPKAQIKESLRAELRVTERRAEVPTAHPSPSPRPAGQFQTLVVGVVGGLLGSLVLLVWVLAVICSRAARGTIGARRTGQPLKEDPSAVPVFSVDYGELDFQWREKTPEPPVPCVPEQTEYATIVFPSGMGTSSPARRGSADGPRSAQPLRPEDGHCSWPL
T5 sequence (P16410 36-161): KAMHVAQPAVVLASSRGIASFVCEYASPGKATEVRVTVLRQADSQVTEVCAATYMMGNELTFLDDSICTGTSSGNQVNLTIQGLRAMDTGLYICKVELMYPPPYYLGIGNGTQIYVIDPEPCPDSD
T4 sequence (P07766 23-207, chain 1 of 3): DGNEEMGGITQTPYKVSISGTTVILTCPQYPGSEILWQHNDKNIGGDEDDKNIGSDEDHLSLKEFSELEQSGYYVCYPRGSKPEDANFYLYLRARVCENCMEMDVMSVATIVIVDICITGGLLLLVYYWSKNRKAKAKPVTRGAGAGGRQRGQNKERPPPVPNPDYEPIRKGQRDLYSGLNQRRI
T4 sequence (P09693 23-182, chain 2 of 3): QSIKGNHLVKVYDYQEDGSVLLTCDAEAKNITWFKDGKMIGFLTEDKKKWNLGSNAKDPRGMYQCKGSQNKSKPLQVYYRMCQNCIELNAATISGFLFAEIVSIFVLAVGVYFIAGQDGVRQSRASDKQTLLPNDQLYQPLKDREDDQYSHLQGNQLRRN
T4 sequence (P04234 22-171, chain 3 of 3): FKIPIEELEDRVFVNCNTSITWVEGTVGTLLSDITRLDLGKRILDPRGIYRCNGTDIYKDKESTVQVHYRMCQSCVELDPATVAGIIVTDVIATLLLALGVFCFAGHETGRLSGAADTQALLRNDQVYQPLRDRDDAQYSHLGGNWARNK
Chain of FcγRIIIa (V176) (P08637 17-208 F176V limits assumed): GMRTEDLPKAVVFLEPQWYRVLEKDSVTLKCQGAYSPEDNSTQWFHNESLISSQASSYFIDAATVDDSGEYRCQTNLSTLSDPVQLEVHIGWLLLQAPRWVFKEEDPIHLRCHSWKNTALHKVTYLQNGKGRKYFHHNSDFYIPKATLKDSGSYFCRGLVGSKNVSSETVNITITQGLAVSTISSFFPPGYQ
Chain of FcγRIIIa (F176) (P08637 17-208 limits assumed): as the sequence (P08637 17-208 F176V limits assumed) above, with V160F counted along it

Kd [1] [nM] | Kd [2] [nM] | Kd [3] [nM] | Kd [4] [nM] | Kd [5] [nM] | EC50 [6] [nM] | Kd [7] [nM] | koff [7] [s⁻¹] | kon [7] [M⁻¹ s⁻¹] | EC50 [8] [nM] | IC50 [9] [nM] | Inhibition % [10] [%] | Kd [11] [nM] | Binder
20500 | 29300 | 15800 | 14000 | 24100 | 47 |  |  |  |  |  |  |  | W3438-T3U4.E17-1.uIgG4.SP, bispecific anti-CD3 x CD19 (bispecific antibody, also called E17-Design_2-QQQQ (IgG4); E17-IgG4; copies: 1 + 1 + 1 + 1) heavy 1: QVQLVQSGAEVKKPGSSVKVSCKASGFAFTDYYIHWVRQAPGQGLEWMGWISPGNVNTKYNENFKGRVTITADKSTSTAYMELSSLRSEDTAVYYCARDGYSLYYFDYWGQGTLVTVLEDLKNVFPPEVAVFEPSEAEISHTQKATLVCLATGFYPDHVELSWWVNGKEVHSGVCTDPQPLKEQPALQDSRYALSSRLRVSATFWQNPRNHFRCQVQFYGLSENDEWTQDRAKPVTQIVSAEAWGRYGPPCPPCPAPEFLGGPSVFLFPPKPKDTLMISRTPEVTCVVVDVSQEDPEVQFNWYVDGVEVHNAKTKPREEQFNSTYRVVSVLTVLHQDWLNGKEYKCKVSNKGLPSSIEKTISKAKGQPREPQVYTLPPCQEEMTKNQVSLWCLVKGFYPSDIAVEWESNGQPENNYKTTPPVLDSDGSFFLYSRLTVDKSRWQEGNVFSCSVMHEALHNHYTQKSLSLSLGK light 1: DIVMTQSPDSLAVSLGERATINCKSSQSLLNSRTRKNYLAWYQQKPGQPPKLLIYWASTRQSGVPDRFSGSGSGTDFTLTISSLQAEDVAVYYCTQSHTLRTFGGGTKVEIKPDIQNPDPAVYQLRDSKSSDKSVCLFTDFDSQTQVSQSKDSDVYITDKCVLDMRSMDFKSNSAVAWSQKSDFACANAFQNSIIPEDTFFPSPESS heavy 2: QMQLVQSGPEVKKPGTSVKVSCKASGYAFTSYNMYWVRQARGQRLEWIGYIDPYNGDTTYNQKFKGRVTITRDMSTSTAYMELSSLRSEDTAVYYCLTTAYAMDYWGQGTLVTVSSASTKGPSVFPLAPCSRSTSESTAALGCLVKDYFPEPVTVSWNSGALTSGVHTFPAVLQSSGLYSLSSVVTVPSSSLGTKTYTCNVDHKPSNTKVDKRVESKYGPPCPPCPAPEFLGGPSVFLFPPKPKDTLMISRTPEVTCVVVDVSQEDPEVQFNWYVDGVEVHNAKTKPREEQFNSTYRVVSVLTVLHQDWLNGKEYKCKVSNKGLPSSIEKTISKAKGQPREPQVCTLPPSQEEMTKNQVSLSCAVKGFYPSDIAVEWESNGQPENNYKTTPPVLDSDGSFFLVSRLTVDKSRWQEGNVFSCSVMHEALHNHYTQKSLSLSLGK light 2: DIQLTQSPSFLSASVGDRVTITCSASSTVNYMHWYQQKPGKAPKLLIYSTSNLASGVPSRFSGSGSGTEFTLTISSLQPEDFATYYCHQWSSYPYTFGQGTKLEIKRTVAAPSVFIFPPSDEQLKSGTASVVCLLNNFYPREAKVQWKVDNALQSGNSQESVTEQDSKDSTYSLSSTLTLSKADYEKHKVYACEVTHQGLSSPVTKSFNRGEC
 |  |  |  |  |  | 0.0356 | 2.88e-05 | 808000 | 1.18 | 1.92 | 94.4 | 0.357 | W3248-U6T5.G25-1.uIgG4.SP, bispecific anti-PD-1 x CTLA-4 (bispecific antibody, IgG4 (S228P); also called WBP3248-U6T5.G25-1-uIgG4.SP; U6T5.G25.IgG4) heavy: not shown light 1: SYELTQPLSVSVALGQTARITCGGDNIGNKDVHWYQQKPGQAPVLVIYRDSNRPSGIPEGFSGSNSGNTATLTISRAQAGDEADYYCQVWDSIWVFGGGTKLTVLPDIQNPDPAVYQLRDSKSSDKSVCLFTDFDSQTQVSQSKDSDVYITDKCVLDMRSMDFKSNSAVAWSQKSDFACANAFQNSIIPEDTFFPSPESS light 2: EIVLTQSPDFQSVTPKEKVTITCSANSALSYMYWYQQKPDQSPKLWVHGTSNLASGVPSRFSGSGSGTDFTLTINSLEAEDAATYYCHHWSNTQWTFGGGTKVEIKRTVAAPSVFIFPPSDEQLKSGTASVVCLLNNFYPREAKVQWKVDNALQSGNSQESVTEQDSKDSTYSLSSTLTLSKADYEKHKVYACEVTHQGLSSPVTKSFNRGEC
 |  |  |  |  |  |  |  |  | 0.948 | 1.67 | 98.6 |  | W3248-U6T1.G25R-1.uIgG4.SP, bispecific anti-PD-1 x CTLA-4 (bispecific antibody, IgG4 (S228P); also called U6T1.G25R.IgG4) heavy: EVQLLESGGGLVQPGGSLRLSCAASGFTFSSHAMSWVRQAPGKGLEWVSTITGGGGSIYYADSVKGRFTISRDNSKNTLYLQMNSLRAEDTAVYYCAKNRAGEGYFDYWGQGTLVTVSSASTKGPSVFPLAPCSRSTSESTAALGCLVKDYFPEPVTVSWNSGALTSGVHTFPAVLQSSGLYSLSSVVTVPSSSLGTKTYTCNVDHKPSNTKVDKRVGGGGSGGGGSQVQLVESGGGVVQPGRSLRLSCAASGFTFSSYTMHWVRQAPGKGLEWVTFISYDGNNKYYADSVKGRFTISRDNSKNTLYLQMNSLRAEDTAIYYCARTGWLGPFDYWGQGTLVTVLEDLKNVFPPEVAVFEPSEAEISHTQKATLVCLATGFYPDHVELSWWVNGKEVHSGVCTDPQPLKEQPALQDSRYALSSRLRVSATFWQNPRNHFRCQVQFYGLSENDEWTQDRAKPVTQIVSAEAWGRYGPPCPPCPAPEFLGGPSVFLFPPKPKDTLMISRTPEVTCVVVDVSQEDPEVQFNWYVDGVEVHNAKTKPREEQFNSTYRVVSVLTVLHQDWLNGKEYKCKVSNKGLPSSIEKTISKAKGQPREPQVYTLPPSQEEMTKNQVSLTCLVKGFYPSDIAVEWESNGQPENNYKTTPPVLDSDGSFFLYSRLTVDKSRWQEGNVFSCSVMHEALHNHYTQKSLSLSLG light 1: SYELTQPLSVSVALGQTARITCGGDNIGNKDVHWYQQKPGQAPVLVIYRDSNRPSGIPEGFSGSNSGNTATLTISRAQAGDEADYYCQVWDSIWVFGGGTKLTVLGQPKAAPSVTLFPPSSEELQANKATLVCLISDFYPGAVTVAWKADSSPVKAGVETTTPSKQSNNKYAASSYLSLTPEQWKSHKSYSCQVTHEGSTVEKTVAPTECS light 2: not shown
